# ± gives the uncertainty stated by the source.
# B1: library; numbered along this chain (parent)
# chain: MEVVDPQQLGMFTEGELMSVGMDTFIHRIDSTEVIYQPRRKRAKLIGKYLMGDLLGEGSYGKVKEVLDSETLCRRAVKILKKKKLRRIPNGEANVKKEIQLLRRLRHKNVIQLVDVLYNEEKQKMYMVMEYCVCGMQEMLDSVPEKRFPVCQAHGYFCQLIDGLEYLHSQGIVHKDIKPGNLLLTTGGTLKISDLGVAEALHPFAADDTCRTSQGSPAFQPPEIANGLDTFSGFKVDIWSAGVTLYNITTGLYPFEGDNIYKLFENIGKGSYAIPGDCGPPLSDLLKGMLEYEPAKRFSIRQIRQHSWFRKKHPPAEAPVPIPPSPDTKDRWRSMTVVPYLEDLHGADEDEDLFDIEDDIIYTQDFTVPGQVPEEEASHNGQRRGLPKAVCMNGTEAAQLSTKSRAEGRAPNPARKACSASSKIRRLSACKQQ
# Variants of: B1
# Experiment: STK11 functional score (HeLa growth suppression), rescaled enrichment; synonymous median = 1, nonsense median = 0 (normalised score)
# Settings: with HeLa; variant type: missense
# Method in brief: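 HeLa cells carrying an AAVS1 landing pad received codon-optimised STK11 libraries made by codon randomisation (POPCode), integrated by Bxb1, with three regions each transfected three times. Integrants that were BFP-negative and mCherry-positive were sorted by FACS 4–5 days after electroporation and then grown for about two weeks. Tiled amplicons from gDNA were sequenced on NextSeq at ~2 million reads per tile. The functional score is a wild-type-corrected log ratio of post- to pre-selection counts, rescaled to the synonymous and nonsense medians, merged across codons and replicate transfections, and given a bootstrapped error.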
row,Variant,STK11 functional score
1,S19H,0.00479 ± 0.13
2,K97D,1.27 ± 0.21
3,T230C,1.19 ± 0.34
4,K122L,1.43 ± 0.26
5,K287Y,0.843 ± 0.36
6,K287V,1.2 ± 0.36
7,D208L,1.36 ± 0.18
8,A200F,0.455 ± 0.11
9,M125P,0.267 ± 0.29
10,I79F,0.321 ± 0.076
11,S404A,1.31 ± 0.34
12,S404T,1.23 ± 0.67
13,T328S,1.39 ± 0.18
14,S283V,1.17 ± 0.29
15,E349M,1.33 ± 0.32
16,M18Y,1.43 ± 0.41
17,L102D,0.469 ± 0.2
18,N393R,1.07 ± 0.18
19,N393P,1.59 ± 0.23
20,I248V,0.854 ± 0.17
21,N266A,1.45 ± 0.15
22,P369A,1.43 ± 0.18
23,Y166C,0.804 ± 0.08
24,E407K,1.55 ± 0.37

row,Variant,STK11 functional score
1,A218H,0.853 ± 0.69
2,P38Q,1.58 ± 0.15
3,P413L,1.31 ± 0.13
4,M335T,1.46 ± 0.19
5,M335E,1.33 ± 0.16
6,P89I,1.41 ± 0.25
7,P321W,1.6 ± 0.15
8,L282I,0.764 ± 0.1
9,L282W,0.522 ± 0.086
10,R39H,1.13 ± 0.23
11,G196V,1.08 ± 0.12
12,V3W,0.953 ± 0.5
13,L195V,0.433 ± 0.14
14,L195W,0.87 ± 0.12
15,S271F,1.03 ± 0.34
16,T185G,0.548 ± 0.091
17,K78I,-0.0791 ± 0.14
18,D359L,1.53 ± 0.17
19,C210M,0.956 ± 0.14
20,C210K,1.3 ± 0.49
21,C210A,1.33 ± 0.73
22,R75I,1.18 ± 0.099
23,H306S,1.53 ± 0.15
24,S59W,0.719 ± 0.1

row,Variant,STK11 functional score
1,D343G,1.41 ± 0.26
2,H154G,0.183 ± 0.15
3,H154V,0.314 ± 0.077
4,L190A,0.537 ± 0.49
5,P179D,-0.213 ± 0.11
6,P179L,0.376 ± 0.075
7,P179V,0.541 ± 0.089
8,D355E,1.02 ± 0.47
9,D355V,1.14 ± 0.18
10,G187R,0.864 ± 0.65
11,E92C,1.68 ± 0.18
12,Q123E,1.15 ± 0.23
13,G215N,1.43 ± 0.19
14,Q371E,1.26 ± 0.48
15,Q371G,1.03 ± 0.36
16,L85Y,0.234 ± 0.093
17,F255S,1.14 ± 0.19
18,F255R,0.632 ± 0.2
19,G270H,1.07 ± 0.31
20,F219I,1.31 ± 0.32
21,H107A,0.964 ± 0.11
22,H107F,0.159 ± 0.075
23,I46C,1.17 ± 0.2
24,A198W,1.16 ± 0.18

row,Variant,STK11 functional score
1,I224V,0.835 ± 0.24
2,I224L,1.28 ± 0.19
3,M129G,0.986 ± 0.11
4,T402E,1.59 ± 0.24
5,R106A,1.45 ± 0.18
6,P315C,1.17 ± 0.42
7,D162T,1.4 ± 0.28
8,F309D,-0.479 ± 0.093
9,L164W,0.051 ± 0.1
10,E65G,0.154 ± 0.087
11,F148D,-0.396 ± 0.083
12,F148T,-0.101 ± 0.1
13,R409S,1.02 ± 0.27
14,R409E,1.57 ± 0.19
15,N226S,0.759 ± 0.096
16,L201M,0.914 ± 0.17
17,D229K,0.652 ± 0.23
18,D229A,0.987 ± 0.31
19,D229Y,0.508 ± 0.12
20,P294Q,1.39 ± 0.23
21,D277L,0.92 ± 0.12
22,D277I,1.45 ± 0.31
23,K235I,1.06 ± 0.65
24,L9F,1.06 ± 0.19

row,Variant,STK11 functional score
1,N94E,0.862 ± 0.32
2,V66C,1.46 ± 0.32
3,T212D,1.48 ± 0.21
4,P339L,0.979 ± 0.25
5,C278E,1.66 ± 0.21
6,F234I,1.67 ± 0.4
7,S31W,0.921 ± 0.11
8,Y362N,1.47 ± 0.15
9,H174S,0.695 ± 0.29
10,Q159I,0.332 ± 0.27
11,Q159M,1.14 ± 0.096
12,P326R,1.53 ± 0.18
13,R104S,0.76 ± 0.2
14,R405K,1.33 ± 0.42
15,A398M,1.63 ± 0.18
16,D365C,1.51 ± 0.17
17,D365A,0.704 ± 0.15
18,M139A,1.39 ± 0.58
19,Y36V,0.824 ± 0.12
20,K388F,1.24 ± 0.4
21,V173C,0.883 ± 0.57
22,L167Y,0.387 ± 0.46
23,I88R,1.65 ± 0.19
24,I88T,1.48 ± 0.39

row,Variant,STK11 functional score
1,K329F,1.18 ± 0.49
2,V116N,0.962 ± 0.81
3,Q137Y,0.779 ± 0.3
4,A93W,1.63 ± 0.1
5,I300R,-0.144 ± 0.081
6,E291F,0.825 ± 0.25
7,E223V,0.469 ± 0.15
8,G180E,1.09 ± 0.67
9,G135L,1.52 ± 0.15
10,N119T,1.42 ± 0.32
11,N119I,1.51 ± 0.062
12,V143C,1.26 ± 0.22
13,Q399S,0.903 ± 0.3
14,L50T,1.29 ± 0.23
15,Y156A,0.114 ± 0.64
16,T13F,1.25 ± 0.15
17,V63N,1.14 ± 0.097
18,K146A,1.29 ± 0.39
19,P254F,0.445 ± 0.29
20,M51I,1.16 ± 0.4
21,L117T,0.762 ± 0.38
22,R42K,1.26 ± 0.84
23,A417I,1.51 ± 0.17
24,I161F,-0.101 ± 0.25

row,Variant,STK11 functional score
1,S240P,-0.0488 ± 0.11
2,D350A,0.867 ± 0.29
3,D350M,1.65 ± 0.15
4,F231L,0.842 ± 0.35
5,G52M,-0.407 ± 0.21
6,I35N,1.02 ± 0.76
7,A377G,1.01 ± 0.21
8,A429L,1.48 ± 0.15
9,K262E,1.31 ± 0.85
10,R28C,0.873 ± 0.22
11,G233F,1.46 ± 0.31
12,H27Y,1.24 ± 0.73
13,P387E,1.6 ± 0.17
14,P387G,1.58 ± 0.2
15,Y60R,1.51 ± 0.41
16,K62V,1.61 ± 0.2
17,W332E,1.61 ± 0.29
18,R425W,1.03 ± 0.14
19,S169H,1.43 ± 0.33
20,S325P,1.51 ± 0.16
21,S325I,1.56 ± 0.26
22,R147V,0.547 ± 0.098
23,E376G,1.18 ± 0.25

# Reference: the supplement of paper PMC12338614
